From PMC12796321, “The genetic and biochemical basis of human leading strand synthesis”

Columns and labels:
[1] = target: POLE1 ISC mutant;POLE2;POLE3;POLE4 (human;human;human;human, UniProt Q07864;P56282;Q9NRF9;Q9NR33 1-2286;1-527;1-147;1-117, C651S;C654S|||); test: EMSA; EMSA: 30 nM DNA, 30-120 nM protein; protein dilution buffer 25 mM Hepes pH 7.5, 100 mM NaCl, 10% glycerol, 0.5 mM EDTA, 1 mM DTT, 0.01% NP-40; 5x reaction buffer 175 mM Hepes pH 7.4, 100 mM NaCl, 10 mM DTT, 500 ug/ml BSA; on ice 20 min (legends: 15 min); native TBE gel at 4 C; settings: protein: recombinant;recombinant;recombinant;recombinant, tags: N-terminal streptavidin tag;;;, copies: 1;1;1;1
Sequence of POLE1 ISC mutant;POLE2;POLE3;POLE4 (Q07864 whole entry C651S/C654S, chain 1 of 4): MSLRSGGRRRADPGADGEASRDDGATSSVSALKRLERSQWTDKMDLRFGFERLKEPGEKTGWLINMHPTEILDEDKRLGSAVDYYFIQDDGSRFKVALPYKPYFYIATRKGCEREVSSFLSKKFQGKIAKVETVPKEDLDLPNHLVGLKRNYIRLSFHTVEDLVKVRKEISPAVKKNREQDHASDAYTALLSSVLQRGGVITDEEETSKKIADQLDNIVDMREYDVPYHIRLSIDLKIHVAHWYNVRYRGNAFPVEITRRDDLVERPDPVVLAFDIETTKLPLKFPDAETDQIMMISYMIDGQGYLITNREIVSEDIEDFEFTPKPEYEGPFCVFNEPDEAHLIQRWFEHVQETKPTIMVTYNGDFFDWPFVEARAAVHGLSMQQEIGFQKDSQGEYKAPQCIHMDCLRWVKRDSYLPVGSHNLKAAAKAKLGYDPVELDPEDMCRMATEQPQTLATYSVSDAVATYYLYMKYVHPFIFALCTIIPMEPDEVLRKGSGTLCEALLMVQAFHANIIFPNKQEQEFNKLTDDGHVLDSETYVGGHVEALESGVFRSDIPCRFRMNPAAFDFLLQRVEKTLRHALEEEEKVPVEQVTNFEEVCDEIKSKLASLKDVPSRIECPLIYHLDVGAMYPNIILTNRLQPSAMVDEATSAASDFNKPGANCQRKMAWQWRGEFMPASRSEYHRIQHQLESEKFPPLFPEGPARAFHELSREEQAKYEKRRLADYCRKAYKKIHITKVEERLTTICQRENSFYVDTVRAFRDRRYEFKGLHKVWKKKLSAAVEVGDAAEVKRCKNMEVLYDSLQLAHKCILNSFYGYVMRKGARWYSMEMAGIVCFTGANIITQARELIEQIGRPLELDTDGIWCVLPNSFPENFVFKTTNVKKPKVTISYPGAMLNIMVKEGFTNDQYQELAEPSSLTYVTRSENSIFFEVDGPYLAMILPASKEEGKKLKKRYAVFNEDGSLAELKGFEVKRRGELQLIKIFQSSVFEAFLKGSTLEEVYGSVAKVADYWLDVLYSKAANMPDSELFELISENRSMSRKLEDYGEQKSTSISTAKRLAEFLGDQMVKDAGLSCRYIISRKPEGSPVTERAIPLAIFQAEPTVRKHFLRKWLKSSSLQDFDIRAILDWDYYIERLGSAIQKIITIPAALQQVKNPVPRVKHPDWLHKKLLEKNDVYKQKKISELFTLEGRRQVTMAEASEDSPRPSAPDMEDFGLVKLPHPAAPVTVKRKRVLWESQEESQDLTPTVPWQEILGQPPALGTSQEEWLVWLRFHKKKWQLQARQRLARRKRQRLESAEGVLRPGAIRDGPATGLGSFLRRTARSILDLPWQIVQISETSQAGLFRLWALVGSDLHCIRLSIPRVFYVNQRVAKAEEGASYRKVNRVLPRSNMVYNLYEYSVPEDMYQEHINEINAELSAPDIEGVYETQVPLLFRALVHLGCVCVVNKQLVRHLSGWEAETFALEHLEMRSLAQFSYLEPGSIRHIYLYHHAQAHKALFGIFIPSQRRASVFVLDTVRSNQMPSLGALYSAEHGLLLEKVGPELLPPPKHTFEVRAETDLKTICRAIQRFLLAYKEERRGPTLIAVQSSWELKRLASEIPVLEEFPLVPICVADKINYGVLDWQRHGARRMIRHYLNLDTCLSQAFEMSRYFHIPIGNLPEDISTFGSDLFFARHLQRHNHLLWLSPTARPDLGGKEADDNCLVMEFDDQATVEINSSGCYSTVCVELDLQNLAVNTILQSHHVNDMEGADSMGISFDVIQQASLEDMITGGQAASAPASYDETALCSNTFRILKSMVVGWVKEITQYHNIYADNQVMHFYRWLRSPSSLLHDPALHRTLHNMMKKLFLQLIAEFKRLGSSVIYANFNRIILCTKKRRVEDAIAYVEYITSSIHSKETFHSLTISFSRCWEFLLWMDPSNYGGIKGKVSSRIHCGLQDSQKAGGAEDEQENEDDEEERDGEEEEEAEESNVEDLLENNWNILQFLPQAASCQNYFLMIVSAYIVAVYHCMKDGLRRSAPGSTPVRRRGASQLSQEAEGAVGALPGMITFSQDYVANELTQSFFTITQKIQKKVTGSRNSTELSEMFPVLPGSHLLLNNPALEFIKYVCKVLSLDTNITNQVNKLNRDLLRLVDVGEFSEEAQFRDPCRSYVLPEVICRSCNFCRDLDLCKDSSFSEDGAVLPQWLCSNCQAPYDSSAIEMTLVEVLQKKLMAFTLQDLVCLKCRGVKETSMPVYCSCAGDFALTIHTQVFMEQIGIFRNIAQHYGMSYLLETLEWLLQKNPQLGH
Sequence of POLE1 ISC mutant;POLE2;POLE3;POLE4 (P56282 whole entry, stated change not applied, chain 2 of 4): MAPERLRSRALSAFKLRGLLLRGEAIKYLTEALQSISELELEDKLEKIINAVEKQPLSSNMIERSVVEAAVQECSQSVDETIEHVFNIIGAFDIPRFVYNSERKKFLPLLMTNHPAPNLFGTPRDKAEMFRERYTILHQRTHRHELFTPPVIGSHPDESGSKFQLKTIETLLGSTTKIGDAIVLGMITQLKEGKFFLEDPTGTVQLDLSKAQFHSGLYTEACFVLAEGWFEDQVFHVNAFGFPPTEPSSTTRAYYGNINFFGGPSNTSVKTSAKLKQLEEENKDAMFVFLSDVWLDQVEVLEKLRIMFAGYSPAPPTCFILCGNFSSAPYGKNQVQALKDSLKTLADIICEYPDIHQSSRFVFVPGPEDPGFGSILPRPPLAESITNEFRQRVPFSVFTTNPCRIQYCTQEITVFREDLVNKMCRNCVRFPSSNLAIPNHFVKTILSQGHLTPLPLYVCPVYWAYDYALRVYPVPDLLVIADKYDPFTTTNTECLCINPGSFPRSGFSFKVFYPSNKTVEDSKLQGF
Sequence of POLE1 ISC mutant;POLE2;POLE3;POLE4 (Q9NRF9 whole entry, stated change not applied, chain 3 of 4): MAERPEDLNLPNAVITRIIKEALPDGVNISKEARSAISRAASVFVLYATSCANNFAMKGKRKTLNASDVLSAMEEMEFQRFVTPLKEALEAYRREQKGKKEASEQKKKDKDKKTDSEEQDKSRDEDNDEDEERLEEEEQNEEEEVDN
Sequence of POLE1 ISC mutant;POLE2;POLE3;POLE4 (Q9NR33 whole entry, stated change not applied, chain 4 of 4): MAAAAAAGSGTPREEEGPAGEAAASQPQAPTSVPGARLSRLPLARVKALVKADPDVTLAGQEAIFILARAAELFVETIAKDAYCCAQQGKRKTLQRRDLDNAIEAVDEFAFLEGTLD

[2] = target: T1, POLE1 (Pol epsilon catalytic subunit);POLE2;POLE3;POLE4 DNA binding mutant (DB/DBM) (human;human;human;human, UniProt Q07864;P56282;Q9NRF9;Q9NR33 1-2286;1-527;1-147;1-117, |||A44L;R45D;K47E;K51E); test: EMSA; binding abolished; EMSA: 30 nM DNA, 30-120 nM protein; protein dilution buffer 25 mM Hepes pH 7.5, 100 mM NaCl, 10% glycerol, 0.5 mM EDTA, 1 mM DTT, 0.01% NP-40; 5x reaction buffer 175 mM Hepes pH 7.4, 100 mM NaCl, 10 mM DTT, 500 ug/ml BSA; on ice 20 min (legends: 15 min); native TBE gel at 4 C; settings: protein: recombinant;recombinant;recombinant;recombinant; tags: N-terminal streptavidin tag;;;; copies: 1;1;1;1; label: 5' 6FAM on strand 1; blunt
T1 sequence (Q07864 whole entry, stated change not applied, chain 1 of 4): as the sequence (Q07864 whole entry C651S/C654S, chain 1 of 4) above, with S651C, S654C counted along it
T1 sequence (P56282 whole entry, stated change not applied, chain 2 of 4): as the sequence (P56282 whole entry, stated change not applied, chain 2 of 4) above
T1 sequence (Q9NRF9 whole entry, stated change not applied, chain 3 of 4): as the sequence (Q9NRF9 whole entry, stated change not applied, chain 3 of 4) above
T1 sequence (Q9NR33 whole entry A44L/R45D/K47E/K51E, chain 4 of 4): as the sequence (Q9NR33 whole entry, stated change not applied, chain 4 of 4) above, with A44L, R45D, K47E, K51E counted along it

[3] = target: T1, POLE1 (Pol epsilon catalytic …); test: EMSA; EMSA: 30 nM DNA, 30-120 nM protein; protein dilution buffer 25 mM Hepes pH 7.5, 100 mM NaCl, 10% glycerol, 0.5 mM EDTA, 1 mM DTT, 0.01% NP-40; 5x reaction buffer 175 mM Hepes pH 7.4, 100 mM NaCl, 10 mM DTT, 500 ug/ml BSA; on ice 20 min (legends: 15 min); native TBE gel at 4 C; settings: protein: recombinant;recombinant;recombinant;recombinant; tags: N-terminal streptavidin tag;;;; copies: 1;1;1;1; label: 5' 6FAM
[4] = target: POLE1 (Pol epsilon catalytic subunit);POLE2 (human;human, UniProt Q07864;P56282 1-2286;1-527, |); test: EMSA; without POLE3-POLE4; EMSA: 30 nM DNA, 30-120 nM protein; protein dilution buffer 25 mM Hepes pH 7.5, 100 mM NaCl, 10% glycerol, 0.5 mM EDTA, 1 mM DTT, 0.01% NP-40; 5x reaction buffer 175 mM Hepes pH 7.4, 100 mM NaCl, 10 mM DTT, 500 ug/ml BSA; on ice 20 min (legends: 15 min); native TBE gel at 4 C; settings: protein: recombinant;recombinant; tags: N-terminal streptavidin tag;; copies: 1;1; label: 5' 6FAM
Sequence of POLE1 (Pol epsilon catalytic subunit);POLE2 (Q07864 whole entry, chain 1 of 2): as the sequence (Q07864 whole entry C651S/C654S, chain 1 of 4) above, with S651C, S654C counted along it
Sequence of POLE1 (Pol epsilon catalytic subunit);POLE2 (P56282 whole entry, chain 2 of 2): as the sequence (P56282 whole entry, stated change not applied, chain 2 of 4) above

B1: EMSA dsDNA 49 bp (dsDNA)
DNA 1: AGCTACCATGCCTGCACGAATTAAGCAATTCGTAATCATGGTCATAGCT
DNA 2: AGCTATGACCATGATTACGAATTGCTTAATTCGTGCAGGCATGGTAGCT
B1: binds ([1]; label: 5' 6FAM on strand 1, blunt); no binding [2].

B2: EMSA leading strand fork (dsDNA)
DNA 1: AGCTACCATGCCTGCACGAATTAAGCAATTCGTAATCATGGTCATAGCT
DNA 2: CTACAGTTCGTCAGGATTCC
DNA 3: AGCTATGACCATGATTACGAATTGCTTGGAATCCTGACGAACTGTAG
B2: binds ([1]; label: 5' 6FAM on strand 1, fork 1:3 (27 bp) 2:3 (20 bp), 22 nt 5' flap on strand 1).

AGCTACCATGCCTGCACGAATTAAGCAATTCGTAATCATGGTCATAGCT (ssDNA) [EMSA ssDNA 49-mer]: binds [3]; binds ([1]; label: 5' 6FAM); binds [4].
